Measured values from patent publication US20260109758A1 (BIOSION, published 2026).
Like-named read-outs stand apart in the source and are kept apart here. One block for each binder: values may come before it.

Legend:
[1] = molecular target: T1, human IL4Rα expressed on 293F-IL4Rα cell surface (human, UniProt P24394 26-825); test: flow cytometry on 293F-IL4Rα cells, PE anti-human IgG Fc
T1 construct: whole, on cells; also called human IL4Rα-expressing cells; cell surface IL4R
Method: (§1) Cells were washed twice with FACS buffer, and added with 100 μL/well R-Phycoerythrin AffiniPure Goat Anti-Human IgG, Fey fragment specific (1:1000 dilution in FACS buffer, Jackson Immunoresearch, Cat #109-115-098). Following an incubation of 40 minutes at 4° C. in dark, cells were washed three times and resuspended in FACS buffer. Fluorescence was measured using a Becton Dickinson FACS Canto II-HTS equipment. Data was analyzed using Graphpad Prism and EC₅₀ values were reported.

[2] = molecular target: T1, human IL4Rα expressed on 293F-IL4Rα …; test: as above; remark: listed apart in the source
Method: as §1

[3] = molecular target: T2, biotin-labeled human TSLP-Fc (human, biotin-labeled); test: cell-based blocking FACS: antibody pre-mixed with biotin human TSLP-Fc; blocked binding to cell-surface TSLPR/IL7Ra on HEK293T-TSLPR/IL7R/STAT5-Luc 5C5 cells
T2 construct: also called TSLP-Fc protein; TSLP-Fc-biotin
Method: The cells were prepared following the instruction of lipofectamine 3000 transfection reagent (Thermo Fisher), by transfecting HEK293T cells (ATCC® CRL-11268) with pCMV-T-P plasmids inserted with TSLPR coding sequence between EcoRI and Xba1 sites and pCMV3-SP plasmids inserted with IL7Ra coding sequence between HindIII and Xba1 sites as well as pGL4.52 [luc2P/STAT5RE/Hygro](Promega).
The cells were harvested from cell culture flasks, washed twice and re-suspended in phosphate buffered saline (PBS) containing 2% v/v Fetal Bovine Serum (FACS buffer). […] Cells were washed twice with FACS buffer, and then added and incubated with 100 μL/well R-Phycoerythrin Streptavidin (1:500 dilution in FACS buffer, Jackson Immunoresearch, Cat #016-110-084) for 40 minutes at 4° C. in dark. Cells were washed twice and re-suspended in FACS buffer. Fluorescence was measured using a Becton Dickinson FACS Canto II-HTS equipment. Data was analyzed using Graphpad Prism and IC₅₀ values were reported.

EC50 [1]: 0.176 nM
B3: BSI-502-008 (bispecific antibody, human IgG1, kappa)
heavy: DIQMTQSPSSLSASVGDRVTITCRPTENIYSYLAWYQQKPGKAPKLLIYFARTLAEGVPSRFSGSGSGTDFTLTISSLQPEDFATYYCQHHYGTPWTFGGGTKVEIKGGGGSGGGGSGGGGSGGGGSQVQLVQSGAEVKKPGASVKVSCKASGYTFTTYWMHWVRQAPGQGLEWMGVIDPSDSDTTYNQKFKGRVTMTRDTSTSTVYMELSSLRSEDTAVYYCTRSLDGYYDYWGQGTLVTVSSGGGGSGGGGSEVQLVESGGGLVQPGGSLRLSCAASGFTFSTYGMSWVRQAPGKGLVWVATINSNGGSTSYPDSVKGRFTISRDNAKNTLYLQMNSLRAEDTAVYYCARFFRFRNAMDYWGQGTLVTVSSASTKGPSVFPLAPSSKSTSGGTAALGCLVKDYFPEPVTVSWNSGALTSGVHTFPAVLQSSGLYSLSSVVTVPSSSLGTQTYICNVNHKPSNTKVDKKVEPKSCDKTHTCPPCPAPEAQGGPSVFLFPPKPKDTLYITREPEVTCVVVDVSHEDPEVKFNWYVDGVEVHNAKTKPREEQYNSTYRVVSVLTVLHQDWLNGKEYKCQVSNKALPAPIEKTISKAKGQPREPQVYTLPPSRDELTKNQVSLTCLVKGFYPSDIAVEWESNGQPENNYKTTPPVLDSDGSFFLYSKLTVDKSRWQQGNVFSCSVMHEALHNHYTQKSLSLSPG
light: DIQMTQSPSSLSASVGDRVTITCRTSENIYSYLAWYQQKPGKAPKFLVYNAKTLAEGVPSRFSGSGSGTDFTLTISSLQPEDFATYYCQHYYGPPTWTFGQGTKVEIKRTVAAPSVFIFPPSDEQLKSGTASVVCLLNNFYPREAKVQWKVDNALQSGNSQESVTEQDSKDSTYSLSSTLTLSKADYEKHKVYACEVTHQGLSSPVTKSFNRGEC
notes: huC2C1A1A1-V15 IgG with an anti-TSLP scFv (VL-VH) at the N-terminus of the heavy chain; AQQ and YTE already stand in the entry

EC50 [1]: 0.188 nM
B5: BSI-502-007 (bispecific antibody, human IgG1, kappa)
heavy: QVQLVQSGAEVKKPGASVKVSCKASGYTFTTYWMHWVRQAPGQGLEWMGVIDPSDSDTTYNQKFKGRVTMTRDTSTSTVYMELSSLRSEDTAVYYCTRSLDGYYDYWGQGTLVTVSSGGGGSGGGGSGGGGSGGGGSDIQMTQSPSSLSASVGDRVTITCRPTENIYSYLAWYQQKPGKAPKLLIYFARTLAEGVPSRFSGSGSGTDFTLTISSLQPEDFATYYCQHHYGTPWTFGGGTKVEIKGGGGSGGGGSEVQLVESGGGLVQPGGSLRLSCAASGFTFSTYGMSWVRQAPGKGLVWVATINSNGGSTSYPDSVKGRFTISRDNAKNTLYLQMNSLRAEDTAVYYCARFFRFRNAMDYWGQGTLVTVSSASTKGPSVFPLAPSSKSTSGGTAALGCLVKDYFPEPVTVSWNSGALTSGVHTFPAVLQSSGLYSLSSVVTVPSSSLGTQTYICNVNHKPSNTKVDKKVEPKSCDKTHTCPPCPAPEAQGGPSVFLFPPKPKDTLYITREPEVTCVVVDVSHEDPEVKFNWYVDGVEVHNAKTKPREEQYNSTYRVVSVLTVLHQDWLNGKEYKCQVSNKALPAPIEKTISKAKGQPREPQVYTLPPSRDELTKNQVSLTCLVKGFYPSDIAVEWESNGQPENNYKTTPPVLDSDGSFFLYSKLTVDKSRWQQGNVFSCSVMHEALHNHYTQKSLSLSPG
light: B3 light
notes: huC2C1A1A1-V15 IgG with an anti-TSLP scFv (VH-VL) at the N-terminus of the heavy chain; AQQ and YTE already stand in the entry

The remaining lines, values behind:

B1: BSI-502-005 (bispecific antibody, human IgG1, kappa)
heavy: QVQLVQSGAEVKKPGASVKVSCKASGYTFTTYWMHWVRQAPGQGLEWMGVIDPSDSDTTYNQKFKGRVTMTRDTSTSTVYMELSSLRSEDTAVYYCTRSLDGYYDYWGQGTLVTVSSASTKGPSVFPLAPSSKSTSGGTAALGCLVKDYFPEPVTVSWNSGALTSGVHTFPAVLQSSGLYSLSSVVTVPSSSLGTQTYICNVNHKPSNTKVDKKVEPKSCDKTHTCPPCPAPEAQGGPSVFLFPPKPKDTLYITREPEVTCVVVDVSHEDPEVKFNWYVDGVEVHNAKTKPREEQYNSTYRVVSVLTVLHQDWLNGKEYKCQVSNKALPAPIEKTISKAKGQPREPQVYTLPPSRDELTKNQVSLTCLVKGFYPSDIAVEWESNGQPENNYKTTPPVLDSDGSFFLYSKLTVDKSRWQQGNVFSCSVMHEALHNHYTQKSLSLSPGKGGGGSGGGGSEVQLVESGGGLVQPGGSLRLSCAASGFTFSTYGMSWVRQAPGKGLVWVATINSNGGSTSYPDSVKGRFTISRDNAKNTLYLQMNSLRAEDTAVYYCARFFRFRNAMDYWGQGTLVTVSSGGGGSGGGGSGGGGSGGGGSDIQMTQSPSSLSASVGDRVTITCRTSENIYSYLAWYQQKPGKAPKFLVYNAKTLAEGVPSRFSGSGSGTDFTLTISSLQPEDFATYYCQHYYGPPTWTFGQGTKVEIK
light: DIQMTQSPSSLSASVGDRVTITCRPTENIYSYLAWYQQKPGKAPKLLIYFARTLAEGVPSRFSGSGSGTDFTLTISSLQPEDFATYYCQHHYGTPWTFGGGTKVEIKRTVAAPSVFIFPPSDEQLKSGTASVVCLLNNFYPREAKVQWKVDNALQSGNSQESVTEQDSKDSTYSLSSTLTLSKADYEKHKVYACEVTHQGLSSPVTKSFNRGEC
notes: hu1C5F12E9-V8 IgG with an anti-IL4R scFv (VH-VL) at the C-terminus of the heavy chain; AQQ and YTE already stand in the entry
EC50 [1]: 0.417 nM

B2: BSI-502-001 (bispecific antibody, human IgG1, kappa)
heavy: EVQLVESGGGLVQPGGSLRLSCAASGFTFSTYGMSWVRQAPGKGLVWVATINSNGGSTSYPDSVKGRFTISRDNAKNTLYLQMNSLRAEDTAVYYCARFFRFRNAMDYWGQGTLVTVSSASTKGPSVFPLAPSSKSTSGGTAALGCLVKDYFPEPVTVSWNSGALTSGVHTFPAVLQSSGLYSLSSVVTVPSSSLGTQTYICNVNHKPSNTKVDKKVEPKSCDKTHTCPPCPAPEAQGGPSVFLFPPKPKDTLYITREPEVTCVVVDVSHEDPEVKFNWYVDGVEVHNAKTKPREEQYNSTYRVVSVLTVLHQDWLNGKEYKCQVSNKALPAPIEKTISKAKGQPREPQVYTLPPSRDELTKNQVSLTCLVKGFYPSDIAVEWESNGQPENNYKTTPPVLDSDGSFFLYSKLTVDKSRWQQGNVFSCSVMHEALHNHYTQKSLSLSPGKGGGGSGGGGSQVQLVQSGAEVKKPGASVKVSCKASGYTFTTYWMHWVRQAPGQGLEWMGVIDPSDSDTTYNQKFKGRVTMTRDTSTSTVYMELSSLRSEDTAVYYCTRSLDGYYDYWGQGTLVTVSSGGGGSGGGGSGGGGSGGGGSDIQMTQSPSSLSASVGDRVTITCRPTENIYSYLAWYQQKPGKAPKLLIYFARTLAEGVPSRFSGSGSGTDFTLTISSLQPEDFATYYCQHHYGTPWTFGGGTKVEIK
light: B3 light
notes: huC2C1A1A1-V15 IgG with an anti-TSLP scFv (hu1C5F12E9-V8, VH-VL) at the C-terminus of the heavy chain
EC50 [2]: 0.18 nM
IC50 [3]: 1.73 nM

B4: BSI-502-002 (bispecific antibody, human IgG1, kappa)
heavy: EVQLVESGGGLVQPGGSLRLSCAASGFTFSTYGMSWVRQAPGKGLVWVATINSNGGSTSYPDSVKGRFTISRDNAKNTLYLQMNSLRAEDTAVYYCARFFRFRNAMDYWGQGTLVTVSSASTKGPSVFPLAPSSKSTSGGTAALGCLVKDYFPEPVTVSWNSGALTSGVHTFPAVLQSSGLYSLSSVVTVPSSSLGTQTYICNVNHKPSNTKVDKKVEPKSCDKTHTCPPCPAPEAQGGPSVFLFPPKPKDTLYITREPEVTCVVVDVSHEDPEVKFNWYVDGVEVHNAKTKPREEQYNSTYRVVSVLTVLHQDWLNGKEYKCQVSNKALPAPIEKTISKAKGQPREPQVYTLPPSRDELTKNQVSLTCLVKGFYPSDIAVEWESNGQPENNYKTTPPVLDSDGSFFLYSKLTVDKSRWQQGNVFSCSVMHEALHNHYTQKSLSLSPGKGGGGSGGGGSDIQMTQSPSSLSASVGDRVTITCRPTENIYSYLAWYQQKPGKAPKLLIYFARTLAEGVPSRFSGSGSGTDFTLTISSLQPEDFATYYCQHHYGTPWTFGGGTKVEIKGGGGSGGGGSGGGGSGGGGSQVQLVQSGAEVKKPGASVKVSCKASGYTFTTYWMHWVRQAPGQGLEWMGVIDPSDSDTTYNQKFKGRVTMTRDTSTSTVYMELSSLRSEDTAVYYCTRSLDGYYDYWGQGTLVTVSS
light: B3 light
notes: huC2C1A1A1-V15 IgG with an anti-TSLP scFv (VL-VH) at the C-terminus of the heavy chain; AQQ and YTE already stand in the entry
EC50 [2]: 0.173 nM
IC50 [3]: 4.23 nM
